Patent US20050048528A1 (WALTER AND ELIZA HALL INSTITUTE OF MEDICAL RESEARCH, published 2005)
Values belong to the binder of their own block, whether it stands above or below them.

How the values were obtained:
HA-CtIP (59-320) = target: T1, HA-CtIP (59-320) (human, UniProt Q99708 59-320); assay: co-immunoprecipitation (anti-Flag) / anti-HA western blot, transfected 293T cells
T1 construct: range 59-320
Method: (§1) FIG. 7: Two regions within CtIP specifically interact with LMO4. A, Schematic representation of wild-type CtIP and deletion mutant constructs that were tested for interaction with LMO4 in mammalian cells. The region that associates with BRCA1 and two putative leucine zipper (LZ) domains are indicated. A summary of each mutant's ability to interact with LMO4 is shown. […] Lysates were prepared and proteins immunoprecipitated using anti-Flag monoclonal antibody (F) or control isotype-matched (C) monoclonal antibody. After SDS-PAGE electrophoresis, western blotting was performed using α-HA antibody, specific for CtIP protein. Western blot analysis confirmed expression of Flag-LMO4 and CtIP mutant proteins (lower panels).
(§2) Cell extracts (0.5 ml) were prepared in whole cell lysis buffer (150 mM NaCl, 5 mM EDTA, 50 mM Tris pH7.5, 1% Nonidet P-40, 1 mM DTT) containing protease inhibitors (1 mM phenylmethylsulfonyl fluoride, 1 μg/ml leupeptin, 1 μg/ml pepstatin, 1 μg/ml aprotinin) and normalised for protein concentration, as determined by Bradford analysis (BioRad). Proteins were immunoprecipitated with either anti-Flag M2 (Sigma) or anti-myc 9E10 and protein G sepharose (Amersham Pharmacia Biotech.), and separated by SDS-PAGE (Novex). […]

HA-CtIP (281-620) = HA-CtIP (281-620) (human, UniProt Q99708 281-620); assay: as above
HA-CtIP (281-620), sequence (Q99708 281-620 limits assumed): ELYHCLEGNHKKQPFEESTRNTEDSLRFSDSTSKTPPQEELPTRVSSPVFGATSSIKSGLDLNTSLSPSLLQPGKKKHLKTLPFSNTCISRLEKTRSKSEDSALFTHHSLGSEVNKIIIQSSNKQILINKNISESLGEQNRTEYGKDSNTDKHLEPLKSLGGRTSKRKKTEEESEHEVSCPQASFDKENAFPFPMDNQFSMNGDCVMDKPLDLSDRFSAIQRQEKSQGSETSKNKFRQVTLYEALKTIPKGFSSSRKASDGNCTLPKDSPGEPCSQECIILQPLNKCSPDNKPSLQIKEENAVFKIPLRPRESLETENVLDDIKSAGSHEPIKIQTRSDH
Method: as §1, §2

[1] = target: BRCA1 activation domain (amino acids 1293-1863) fused to the Gal4 DNA-binding domain (human, UniProt P04386 1-147; P38398 1293-1863); assay: cell-based or functional assay
[2] = target: T2, HA-tagged BRCA1 SZ fragment (residues 1528-1863) (human, UniProt P38398 1528-1863, 35S-methionine-labeled in the in vitro binding assay); assay: in vitro binding of 35S-labeled BRCA1-SZ to GST-LMO4 on glutathione sepharose, SDS-PAGE
T2 construct: also called BRCT (SZ) region
T2 sequence (P38398 1528-1863): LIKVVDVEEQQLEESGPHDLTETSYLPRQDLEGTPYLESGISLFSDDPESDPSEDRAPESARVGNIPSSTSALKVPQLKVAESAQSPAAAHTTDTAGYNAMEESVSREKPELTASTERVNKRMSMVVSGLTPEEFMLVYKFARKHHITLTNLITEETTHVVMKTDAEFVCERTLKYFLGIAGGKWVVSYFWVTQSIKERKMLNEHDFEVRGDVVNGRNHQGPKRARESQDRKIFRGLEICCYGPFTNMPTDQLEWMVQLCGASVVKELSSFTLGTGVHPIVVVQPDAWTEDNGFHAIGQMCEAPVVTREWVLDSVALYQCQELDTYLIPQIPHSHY
Method: FIG. 10: The C-terminal BRCT domains of BRCA1 mediate interaction with LMO4. […] Lysates were immunoprecipitated with anti-Flag (F) or control (C) antibody, then western blotted with anti-HA antibody. B, LMO4 and the BRCT domain interact in vitro. […] Bound proteins were analysed by SDS-PAGE. Arrow depicts the BRCA1-SZ protein. C, LMO4 and the BRCT (SZ) region of BRCA1 interact in yeast Hf7c cells. Yeast cells were cotransformed with the indicated expression vectors and plated on media deficient in his, leu and trp. Staining for β-galactosidase activity verified that the His⁺ colonies obtained for LMO4+CtIP and LMO4+BRCA1 (SZ) transformants were also β-Gal⁺. No colonies were obtained for Hf7c cells transformed with BRCA1 (SZ)+lamin, BRCA1 (SZ) alone or LMO4 alone.
Binding assays were carried out with a 10 μl aliquot of […] BRCA1-SZ primed lysate and 100 μl (50% slurry of GST-sepharose beads; Amersham Pharmacia) of GST-LMO4 or GST-only protein in GST interaction buffer (150 mM NaCl, 10 mM Tris pH 8, 0.3% NP-40, 1 mM DTT, 0.25% BSA and 0.5 mM phenylmethylsulfonyl fluoride) for 2 hours at 4° C. The beads were subsequently washed twice in GST interaction buffer containing BSA, followed by two more washes in GST interaction buffer without BSA. Finally, the bound BRCA1 C-terminal polypeptide was eluted by boiling the beads for 5 min in 30 μl loading buffer and analysed by SDS-PAGE.

[3] = target: T3, endogenous BRCA1 of human HBL100 breast epithelial cells (human, UniProt P38398 1-1863); assay: immunoprecipitation of HBL100 nuclear lysates with rat anti-LMO4 monoclonal / anti-BRCA1 western blot (FIG. 9B)
T3 construct: mature; also called native BRCA1; BRCA1 (220 kD)
T3 sequence (P38398 whole entry): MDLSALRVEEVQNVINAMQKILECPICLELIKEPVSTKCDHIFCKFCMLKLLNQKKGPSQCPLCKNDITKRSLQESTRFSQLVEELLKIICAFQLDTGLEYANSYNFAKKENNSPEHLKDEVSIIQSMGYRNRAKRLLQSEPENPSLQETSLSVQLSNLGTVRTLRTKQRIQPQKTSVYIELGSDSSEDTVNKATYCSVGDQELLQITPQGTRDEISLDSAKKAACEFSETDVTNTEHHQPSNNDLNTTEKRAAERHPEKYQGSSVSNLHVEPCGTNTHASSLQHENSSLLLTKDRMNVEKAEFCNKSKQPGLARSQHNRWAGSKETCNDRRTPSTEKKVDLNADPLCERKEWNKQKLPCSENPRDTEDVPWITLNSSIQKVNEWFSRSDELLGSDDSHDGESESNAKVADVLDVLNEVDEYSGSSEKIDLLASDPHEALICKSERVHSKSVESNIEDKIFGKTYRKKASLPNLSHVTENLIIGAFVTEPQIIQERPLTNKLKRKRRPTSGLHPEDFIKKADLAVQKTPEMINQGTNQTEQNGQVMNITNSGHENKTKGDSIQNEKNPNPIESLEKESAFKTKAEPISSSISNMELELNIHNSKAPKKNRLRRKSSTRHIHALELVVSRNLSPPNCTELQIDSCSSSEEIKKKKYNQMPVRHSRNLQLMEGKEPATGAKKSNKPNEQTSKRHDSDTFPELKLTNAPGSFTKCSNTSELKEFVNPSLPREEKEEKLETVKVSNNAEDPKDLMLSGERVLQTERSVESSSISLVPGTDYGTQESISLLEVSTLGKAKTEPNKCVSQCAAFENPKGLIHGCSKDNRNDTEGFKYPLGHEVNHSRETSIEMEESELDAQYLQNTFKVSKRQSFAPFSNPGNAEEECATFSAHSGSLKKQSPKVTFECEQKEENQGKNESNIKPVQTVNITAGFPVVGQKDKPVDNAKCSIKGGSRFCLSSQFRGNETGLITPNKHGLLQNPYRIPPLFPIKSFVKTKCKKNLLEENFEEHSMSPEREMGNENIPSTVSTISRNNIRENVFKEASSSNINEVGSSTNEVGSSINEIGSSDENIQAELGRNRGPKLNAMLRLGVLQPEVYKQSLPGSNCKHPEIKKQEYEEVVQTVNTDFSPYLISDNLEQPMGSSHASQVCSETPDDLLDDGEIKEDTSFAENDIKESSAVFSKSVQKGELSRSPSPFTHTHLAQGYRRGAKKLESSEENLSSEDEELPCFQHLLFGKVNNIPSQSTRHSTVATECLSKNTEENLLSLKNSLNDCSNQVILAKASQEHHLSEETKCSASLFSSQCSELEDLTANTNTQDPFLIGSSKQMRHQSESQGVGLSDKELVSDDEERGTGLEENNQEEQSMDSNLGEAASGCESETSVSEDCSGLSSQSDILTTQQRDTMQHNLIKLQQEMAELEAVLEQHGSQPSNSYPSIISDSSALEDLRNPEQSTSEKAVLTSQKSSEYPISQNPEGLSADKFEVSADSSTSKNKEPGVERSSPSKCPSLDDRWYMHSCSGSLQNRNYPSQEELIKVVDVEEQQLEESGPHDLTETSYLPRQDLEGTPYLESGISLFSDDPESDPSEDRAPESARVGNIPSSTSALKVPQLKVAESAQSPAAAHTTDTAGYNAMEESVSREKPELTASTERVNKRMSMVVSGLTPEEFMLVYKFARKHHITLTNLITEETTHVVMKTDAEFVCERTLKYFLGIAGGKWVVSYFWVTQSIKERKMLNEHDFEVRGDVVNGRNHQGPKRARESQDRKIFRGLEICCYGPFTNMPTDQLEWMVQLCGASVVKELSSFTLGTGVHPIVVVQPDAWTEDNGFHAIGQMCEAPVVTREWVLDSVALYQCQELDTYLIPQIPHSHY
Source text: Nuclear lysates were immunoprecipitated with a rat anti-LMO4 monoclonal (lane 2) or control antibody (lane 3), then immunoblotted with anti-BRCA1 (upper panel) or anti-CtIP (middle panel) monoclonal antibody. The immunoprecipitate was divided between two SDS-polyacrylamide gels, one of which underwent extended electrophoresis for detection of BRCA1 (220 kD) while the other was immunoblotted with anti-CtIP antibody. As a control, immunoprecipitate was also blotted with anti-LMO4 monoclonal antibody (lower panel). Lysate from HBL100 cells was loaded in an adjacent lane to provide a size control for the respective proteins (lane 1), indicated by arrows. C, Interaction between LMO4, CtIP, BRCA1 and Ldb1 in mammalian cells. […] Western blot analysis confirmed high level expression of individual proteins in these transfectants (lane 1).
For detection of endogenous proteins, nuclear extracts from human HBL100 cells were prepared (Watters, D., Khanna, K. K., Beamish, H., Birrell, G., Spring, K., Kedar, P., Gatei, M., Stenzel, D., Hobson, K., Kozlov, S., Zhang, N., Farrell, A., Ramsay, J., Gatti, R., and Lavin, M. (1997) Oncogene 14(16), 1911-21). Proteins were immunoprecipitated with either anti-LMO4 rabbit antisera or a rat anti-LMO4 monoclonal antibody and protein G sepharose, and fractionated by SDS-PAGE. […]

[4] = target: T4, endogenous CtIP of human HBL100 breast epithelial cells (human, UniProt Q99708 1-897); assay: immunoprecipitation of HBL100 nuclear extracts with anti-LMO4 antisera / anti-CtIP western blot (FIG. 6D)
T4 construct: mature; also called native CtIP
T4 sequence (Q99708 whole entry): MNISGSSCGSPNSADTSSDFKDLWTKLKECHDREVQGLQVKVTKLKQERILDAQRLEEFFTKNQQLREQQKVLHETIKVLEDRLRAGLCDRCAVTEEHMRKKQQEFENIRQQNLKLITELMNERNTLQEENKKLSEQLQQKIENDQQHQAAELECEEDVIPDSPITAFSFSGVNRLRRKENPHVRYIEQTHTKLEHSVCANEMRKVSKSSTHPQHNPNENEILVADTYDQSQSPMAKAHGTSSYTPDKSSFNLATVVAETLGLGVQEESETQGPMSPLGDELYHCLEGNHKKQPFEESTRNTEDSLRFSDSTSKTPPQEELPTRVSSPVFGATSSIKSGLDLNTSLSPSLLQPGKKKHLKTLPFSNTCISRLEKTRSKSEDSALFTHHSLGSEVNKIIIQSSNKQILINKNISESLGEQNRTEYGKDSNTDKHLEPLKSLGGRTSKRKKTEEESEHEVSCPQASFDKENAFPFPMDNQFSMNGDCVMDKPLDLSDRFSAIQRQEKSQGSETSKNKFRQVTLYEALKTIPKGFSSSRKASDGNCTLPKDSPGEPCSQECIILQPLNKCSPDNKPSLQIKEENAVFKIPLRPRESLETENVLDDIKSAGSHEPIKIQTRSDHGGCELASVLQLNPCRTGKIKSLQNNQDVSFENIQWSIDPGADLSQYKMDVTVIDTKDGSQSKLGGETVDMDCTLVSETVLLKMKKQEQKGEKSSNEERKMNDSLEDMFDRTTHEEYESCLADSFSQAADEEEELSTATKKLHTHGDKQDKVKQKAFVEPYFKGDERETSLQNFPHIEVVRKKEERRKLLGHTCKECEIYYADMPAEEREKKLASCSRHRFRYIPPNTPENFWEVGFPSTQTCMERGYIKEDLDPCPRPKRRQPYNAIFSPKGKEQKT
Method: (§3) A, CtIP associates with LMO4 and LMO2. […] Lysates were prepared and proteins immunoprecipitated with the indicated specific antisera. F, Flag; C, control isotype-matched monoclonal antibody. Immunoblotting was performed with the antibodies indicated under each panel. Lane 4 depicts the reciprocal immunoprecipitation experiment performed using an anti-CtIP antibody. The 25 kD bands in lane 4 represent light chain. Western blot analysis of lysates confirmed expression of CtIP and LMO proteins. Note the different size markers indicated for LMO proteins detected by western analysis using anti-Flag antibody (lane 4). B, The first LIM domain but not the second LIM domain of LMO4 interacts with CtIP. […] Cell extracts were immunoprecipitated with anti-Flag (F) antibody, then immunoblotted with anti-CtIP antisera. Western blot analysis of lysates confirmed expression of CtIP and LIM polypeptides (lower panels). […] Cell extracts were immunoprecipitated with anti-Flag (F) antibody, then immunoblotted with anti-CtIP antibody. Western blot analysis of lysates confirmed expression of CtIP and LIM proteins (lower panels). D, Interaction between endogenous LMO4 and CtIP proteins in HBL100 epithelial cells. Nuclear extracts were immunoprecipitated with pre-immune serum (lane 1) or anti-LMO4 antisera (lane 2), then blotted using anti-CtIP monoclonal antibody. […]

[5] = target: CtIP (residues 45-897), human, from pCMV-HA-ns311 (human, UniProt Q99708 45-897); assay: co-immunoprecipitation (anti-Flag) / anti-CtIP western blot, transfected 293T cells
CtIP (residues 45-897), human, from pCMV-HA-ns311, sequence (Q99708 45-897 limits assumed): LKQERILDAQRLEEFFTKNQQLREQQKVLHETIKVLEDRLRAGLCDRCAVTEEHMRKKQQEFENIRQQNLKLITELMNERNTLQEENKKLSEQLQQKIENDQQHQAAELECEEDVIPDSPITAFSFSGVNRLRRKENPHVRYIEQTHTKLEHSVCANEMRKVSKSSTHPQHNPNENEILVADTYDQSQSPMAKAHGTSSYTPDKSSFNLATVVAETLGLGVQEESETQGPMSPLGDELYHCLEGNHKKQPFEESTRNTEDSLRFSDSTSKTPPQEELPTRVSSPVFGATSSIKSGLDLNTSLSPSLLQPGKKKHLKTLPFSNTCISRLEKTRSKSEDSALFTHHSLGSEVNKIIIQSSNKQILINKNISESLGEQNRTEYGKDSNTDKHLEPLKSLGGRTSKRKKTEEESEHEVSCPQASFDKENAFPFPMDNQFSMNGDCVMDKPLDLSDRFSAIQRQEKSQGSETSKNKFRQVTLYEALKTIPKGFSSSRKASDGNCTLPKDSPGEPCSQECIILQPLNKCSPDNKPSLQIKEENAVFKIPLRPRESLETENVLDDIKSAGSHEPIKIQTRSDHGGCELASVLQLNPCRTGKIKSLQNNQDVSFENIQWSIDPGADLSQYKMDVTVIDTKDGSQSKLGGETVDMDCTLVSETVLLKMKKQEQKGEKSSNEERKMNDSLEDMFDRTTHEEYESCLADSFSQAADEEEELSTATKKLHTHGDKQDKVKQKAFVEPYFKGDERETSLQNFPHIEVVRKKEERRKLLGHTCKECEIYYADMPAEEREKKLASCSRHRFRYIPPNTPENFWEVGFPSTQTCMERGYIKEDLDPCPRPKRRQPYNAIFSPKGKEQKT
Method: as §3, with “FIG. 6: Interaction between LM04 and CtIP requires a single LIM domain and appears to be specific for the LMO subclass. A,” for “A,”, “cells.” for “cells. Nuclear extracts were immunoprecipitated with pre-immune serum (lane 1) or anti-LMO4 antisera (lane 2), then blotted using anti-CtIP monoclonal antibody.”

T1 sequence (Q99708 59-320 limits assumed): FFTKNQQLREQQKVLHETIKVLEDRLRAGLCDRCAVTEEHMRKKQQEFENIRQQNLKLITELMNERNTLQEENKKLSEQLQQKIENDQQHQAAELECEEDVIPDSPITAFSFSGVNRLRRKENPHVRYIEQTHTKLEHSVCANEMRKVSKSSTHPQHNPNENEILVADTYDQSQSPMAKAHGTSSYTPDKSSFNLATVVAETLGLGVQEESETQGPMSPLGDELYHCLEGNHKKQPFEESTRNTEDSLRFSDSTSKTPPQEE

binding result (HA-CtIP (59-320)): no binding | binding result (HA-CtIP (281-620)): no binding | transcription of the Gal4-CAT reporter gene in 293T cells (CAT ELISA) [1]: ~3 fold
B1: Flag-tagged LMO4 (full-length) (other, UniProt P61968 1-165, looked up, not shown: small tags and cut ends)
chain: MVNPGSSSQPPPVTAGSLSWKRCAGCGGKIADRFLLYAMDSYWHSRCLKCSCCQAQLGDIGTSCYTKSGMILCRNDYIRLFGNSGACSACGQSIPASELVMRAQGNVYHLKCFTCSTCRNRLVPGDRFHYINGSLFCEHDRPTALINGHLNSLQSNPLLPDQKVC
notes: mature; also called Flag-LMO4; LM04

binding result [2]: binds
B2: GST-LMO4 fusion protein (full-length mouse LMO4 in pGEX-2T) (other, UniProt P61969 1-165, looked up)
chain: MVNPGSSSQPPPVTAGSLSWKRCAGCGGKIADRFLLYAMDSYWHSRCLKCSCCQAQLGDIGTSCYTKSGMILCRNDYIRLFGNSGACSACGQSIPASELVMRAQGNVYHLKCFTCSTCRNRLVPGDRFHYINGSLFCEHDRPTALINGHLNSLQSNPLLPDQKVC
notes: mature; Expressed in bacterial strain UT5600, immobilised on glutathione sepharose; not shown: glutathione-S-transferase as encoded by pGEX-2T; linker to LMO4 not described

binding result [3]: binds | binding result [4]: binds
B3: endogenous LMO4 of human HBL100 breast epithelial cells (other, UniProt P61968 1-165, looked up)
chain: MVNPGSSSQPPPVTAGSLSWKRCAGCGGKIADRFLLYAMDSYWHSRCLKCSCCQAQLGDIGTSCYTKSGMILCRNDYIRLFGNSGACSACGQSIPASELVMRAQGNVYHLKCFTCSTCRNRLVPGDRFHYINGSLFCEHDRPTALINGHLNSLQSNPLLPDQKVC
notes: mature; also called native LMO4; 17 kD LMO4 protein

binding result [5]: no binding
B4: Flag-tagged second LIM domain of LMO4 (residues 79-165) (other, UniProt P61968 79-165, looked up, not shown: small tags and cut ends)
chain: RLFGNSGACSACGQSIPASELVMRAQGNVYHLKCFTCSTCRNRLVPGDRFHYINGSLFCEHDRPTALINGHLNSLQSNPLLPDQKVC
notes: also called LIM2
